This is an account of results in paper PMC7738170.

Series [1] concerns the target T1, 6xHis-DnaA (Mtb) (Mycobacterium tuberculosis) (UniProt P9WNW3).
T1 sequence: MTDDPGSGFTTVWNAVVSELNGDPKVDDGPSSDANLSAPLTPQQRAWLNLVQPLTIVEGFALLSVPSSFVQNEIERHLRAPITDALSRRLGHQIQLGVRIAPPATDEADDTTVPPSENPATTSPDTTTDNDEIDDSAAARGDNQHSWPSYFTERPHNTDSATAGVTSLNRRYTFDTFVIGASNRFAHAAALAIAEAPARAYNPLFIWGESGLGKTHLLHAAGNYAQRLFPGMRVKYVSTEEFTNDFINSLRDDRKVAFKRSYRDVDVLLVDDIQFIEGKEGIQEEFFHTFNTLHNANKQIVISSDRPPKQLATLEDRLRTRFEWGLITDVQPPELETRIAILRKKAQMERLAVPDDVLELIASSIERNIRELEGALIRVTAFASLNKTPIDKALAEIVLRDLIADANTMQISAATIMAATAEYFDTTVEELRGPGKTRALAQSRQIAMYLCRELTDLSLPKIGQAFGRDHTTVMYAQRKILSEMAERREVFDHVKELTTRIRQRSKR
Kind of series: EMSA. A general note: A gel shift assay detects complexes by their altered migration in electrophoresis.

For series [2], the system named is 6xHis-DnaA (Mtb) (Mycobacterium tuberculosis). Kind of series: EMSA.

For the substance “CCCTACACGACGCTCTTCCGACCCTCTCACCACTGCAGACAAAGTTATCCACAGACGCTATCAACAGTGGGGATGAATCACATGCGTGTGATTGAGTGACCAAAAGGTTGCTGGCACAGTAACGACCCGACCAGAATATGAATTCATTCTATCGGCGGCG (double strand) [Rv0010c-Rv0011c intergenic fragment]”, in series [1], the binding result is “binds”.

Usually Kd stands for the equilibrium constant for the complex coming apart. Read a low Kd as higher affinity. In turn, oriC fragment returned a Kd in series [2] of 0.07 µM. This lies in the double-digit nanomolar range.
